{
  "source": "patent US20250325630A1",
  "about": "“HOMODIMER FUSION PROTEINS FOR TREATING ATOPIC DERMATITIS” (Intervet Inc., priority 2021, published 2025)",
  "binders": {"B1": {"name": "cIL-4Rα-cIgGB-Fc (Fc fusion)", "chain": "VKVLHEPSCFSDYISTSVCQWKMDHPTNCSAELRLSYQLDFMGSENHTCVPENREDSVCVCSMPIDDAVEADVYQLDLWAGQQLLWSGSFQPSKHVKPRTPGNLTVHPNISHTWLLMWTNPYPTENHLHSELTYMVNVSNDNDPEDFKVYNVTYMGPTLRLAASTLKSGASYSARVRAWAQTYNSTWSDWSPSTTWLNYYEPWEQHLPPKRENGRVPRPPDCPKCPAPEMLGGPSVFIFPPKPKDTLLIARTPEVTCVVVDLDPEDPEVQISWFVDGKQMQTAKTQPREEQFNGTYRVVSVLPIGHQDWLKGKQFTCKVNNKALPSPIERTISKARGQAHQPSVYVLPPSREELSKNTVSLTCLIKDFFPPDIDVEWQSNGQQEPESKYRTTPPQLDEDGSYFLYSKLSVDKSRWQRGDTFICAVMHEALHNHYTQESLSHSPGK", "notes": "Homodimer held by hinge disulfides; made in CHO cells, purified on protein A; also called cIL-4Rα-cFc; cIL4Rα-cFc"}, "B2": {"name": "cIL-4Rα-cIgGB-Fc-H (Fc fusion)", "chain": "B1 chain with N432H", "notes": "Homodimer; also called cIL-4Rα-cFc-H; cIL-4Rα-cFc-NH"}, "B3": {"name": "cIL-4Rα-cIgGB-Fc-YTE (Fc fusion)", "chain": "B1 chain with L248Y, A250T, T252E", "notes": "Homodimer; also called cIL-4Rα-cFc-YTE"}, "B4": {"name": "cIL-4Rα-13Rα1_ZW1-cFc (Fc fusion)", "chain 1": "B1 chain with L347Y, F403A, Y405V", "chain 2": "GGVAAPTETQPPVTNLSVSVENLCTVIWTWDPPEGASPNCTLRYFSHFDNKQDKKIAPETHRSKEVPLNERICLQVGSQCSTNESDNPSILVEKCTPPPEGDPESAVTELQCVWHNLSYMKCTWLPGRNTSPDTNYTLYYWHSSLGKILQCEDIYREGQHIGCSFALTNLKDSSFEQHSVQIVVKDNAGKIRPSFNIVPLTSHVKPDPPHIKRLFFQNGNLYVQWKNPQNFYSRCLSYQVEVNNSQTETNDIFYVEEAKCQNSEFEGNLEGTICFMVPGVLPDTLNTVRIRVRTNKLCYEDDKLWSNWSQAMSIGENTDPTPKRENGRVPRPPDCPKCPAPEMLGGPSVFIFPPKPKDTLLIARTPEVTCVVVDLDPEDPEVQISWFVDGKQMQTAKTQPREEQFNGTYRVVSVLPIGHQDWLKGKQFTCKVNNKALPSPIERTISKARGQAHQPSVYVLPPSREELSKNTVSLLCLIKDFFPPDIDVEWQSNGQQEPESKYLTWPPQLDEDGSYFLYSKLSVDKSRWQRGDTFICAVMHEALHNHYTQESLSHSPGK", "notes": "also called cIL4Rα-IL13Rα1_ZW1-cFc; cIL-4Rα-IL-13Rα1_ZW1-cFc"}, "B5": {"name": "cIL-13Rα1-cIgGB-Fc-YTE (Fc fusion)", "chain": "B4 chain 2 with L361Y, A363T, T365E, L475T, L503R, W505T", "notes": "Homodimer; also called cIL-13Rα1-cFc-YTE"}, "B6": {"name": "cIL-13Rα2-cIgGB-Fc-YD (Fc fusion)", "chain": "SMLSNAEIKVNPPQDFEIVDPGYLGYLSLQWQPPLFPDNFKECTIEYELKYRNIDSENWKTIITKNLHYKDGFDLNKGIEAKINTLLPAQCTNGSEVRSSWAETTYWTSPQGNRETKIQDMDCVYYNWQYLVCSWKPGMGVHFDTNYQLFYWYEGLDHSAECTDYIKVNGKNMGCRFPYLESSDYKDFYICVNGSSESQPIRPSYFIFQLQNIVKPMPPDYLSLTVKNSEEINLKWNMPKGPIPAKCFIYEIEFTEDGTTWVTTTVENEIQITRTSNESQKLCFLVRSKVNIYCSDDGIWSEWSDEQCWKGDIWKETPKRENGRVPRPPDCPKCPAPEMLGGPSVFIFPPKPKDTLYIARDPEVTCVVVDLDPEDPEVQISWFVDGKQMQTAKTQPREEQFNGTYRVVSVLPIGHQDWLKGKQFTCKVNNKALPSPIERTISKARGQAHQPSVYVLPPSREELSKNTVSLTCLIKDFFPPDIDVEWQSNGQQEPESKYRTTPPQLDEDGSYFLYSKLSVDKSRWQRGDTFICAVMHEALHNHYTQESLSHSPGK", "notes": "Homodimer; also called cIL-13Rα2-cFc-YD"}, "B7": {"name": "cIL-13Rα2-cIgGB-Fc-YTE (Fc fusion)", "chain": "B6 chain with A359T, D361E", "notes": "Homodimer; also called cIL-13Rα2-cFc-YTE"}, "B8": {"name": "cIL-13Rα1-cIgGB-Fc (Fc fusion)", "chain": "B4 chain 2 with L475T, L503R, W505T", "notes": "Homodimer; also called cIL-13Rα1-cFc; cIL13Rα1-cFc"}, "B9": {"name": "cIL-13Rα2-cIgGB-Fc (Fc fusion)", "chain": "B6 chain with Y357L, D361T", "notes": "Homodimer; also called cIL-13Rα2-cFc; cIL13Rα2-cFc"}},
  "note": "Where a chain is given by its changes, count along the chain named.",
  "data": [
    {"biological_target": "T1, canine IL-4 (canine, UniProt O77762 25-132, biotin-labeled in the Octet assay (site not stated))", "T1 construct": "Biotin-labeled and loaded on SA biosensors for the kinetics; unlabeled recombinant protein in the DH82 cell assay; also called cIL-4; canine Interleukin-4", "T1 sequence (looked up)": "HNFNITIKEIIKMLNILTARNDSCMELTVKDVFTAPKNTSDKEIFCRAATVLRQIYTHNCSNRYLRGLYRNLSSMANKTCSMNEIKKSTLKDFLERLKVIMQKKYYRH", "experiment": "BLI (Octet HTX), biotin-cIL-4 on SA biosensors, fusion protein in solution, 1:1 fit", "procedure": "(§1) The binding constants for the cFc fusion proteins provided in Tables 3 and 4 below, were determined using OCTET® HTX. All kinetics measurements were performed by OCTET® HTX using SA® biosensors and DATA ACQUISITION® 12.0 software. 10 μg/mL of biotin-labeled antigen, either canine IL-4 (cIL-4) or canine IL-13 (cIL-13) were loaded onto the SAR biosensors for 120 seconds. Next, the biosensors were placed into 1×pH 7.0 TBS/Casein buffer for 60 seconds for the blocking phase. For the association phase, antigen loaded biosensors were placed into 2-fold serial dilutions from 1 μM down to 15.6 nM of the wild-type, the bispecific, or the FcRn-mutant receptor Fc-fusions that recognized the cIL-4 or cIL-13 antigen in 1×pH 7.0 TBS/Casein buffer for 30 seconds. The last well was buffer alone and that sensor was used for reference sensor subtraction. Finally, the biosensors were placed into 1×pH 7.0 TBS/Casein buffer for 120 seconds for the dissociation phase. The results were then analyzed using Data Analysis 12.0 software and the curves were fitted using a 1:1 binding model.", "units": {"Kd": "nM", "koff": "s⁻¹", "kon": "M⁻¹ s⁻¹"}, "values": [
      {"binder": "B1", "Kd": 0.00118, "koff": "8.3e-07", "kon": 703000},
      {"binder": "B2", "Kd": 0.126, "koff": "9.88e-05", "kon": 785000},
      {"binder": "B3", "Kd": 0.0111, "koff": "9.23e-06", "kon": 830000},
      {"binder": "B4", "Kd": 9.85, "koff": 0.00234, "kon": 237000}
    ]},
    {"biological_target": "T1, canine IL-4", "experiment": "cell-based or functional assay", "units": {"IL-4 IC50 (inhibition of cIL-4 mediated STAT6 phosphorylation in DH82 cells)": "nM"}, "values": [
      {"binder": "B1", "IL-4 IC50 (inhibition of cIL-4 mediated STAT6 phosphorylation in DH82 cells)": 0.084},
      {"binder": "B4", "IL-4 IC50 (inhibition of cIL-4 mediated STAT6 phosphorylation in DH82 cells)": 0.046}
    ]},
    {"biological_target": "T1, canine IL-4", "experiment": "BLI (Octet); summary table, rounded from Table 3", "units": {"Kd": "nM"}, "values": [
      {"binder": "B1", "Kd": 0.001},
      {"binder": "B4", "Kd": 10}
    ]},
    {"biological_target": "T1, canine IL-4", "experiment": "BLI (Octet)", "procedure": "as §1", "units": {"fold change of KD against the unmodified cIL-4Rα-cFc homodimer": "fold"}, "values": [
      {"binder": "B2", "fold change of KD against the unmodified cIL-4Rα-cFc homodimer": "~100"},
      {"binder": "B3", "fold change of KD against the unmodified cIL-4Rα-cFc homodimer": "~10"},
      {"binder": "B4", "fold change of KD against the unmodified cIL-4Rα-cFc homodimer": "~10000"}
    ]},
    {"biological_target": "T2, canine IL-13 (canine, UniProt Q9N0W9 19-131, limits assumed, biotin-labeled in the Octet assay (site not stated))", "T2 construct": "Biotin-labeled and loaded on SA biosensors for the kinetics; unlabeled in the DH82 cell assay; also called cIL-13; canine Interleukin-13", "T2 sequence (looked up)": "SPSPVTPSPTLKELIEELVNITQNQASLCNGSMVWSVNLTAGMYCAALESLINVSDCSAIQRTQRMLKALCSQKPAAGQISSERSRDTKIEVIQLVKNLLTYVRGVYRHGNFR", "experiment": "BLI (Octet)", "procedure": "as §1", "units": {"fold tighter binding than the unmodified IL-13Rα1-cFc": "fold", "fold decrease in affinity against unmodified cIL-13Rα1-cFc": "fold", "fold decrease of KD against unmodified cIL-13Rα2-cFc": "fold"}, "values": [
      {"binder": "B4", "fold tighter binding than the unmodified IL-13Rα1-cFc": 8},
      {"binder": "B5", "fold decrease in affinity against unmodified cIL-13Rα1-cFc": "~4"},
      {"binder": "B6", "fold decrease of KD against unmodified cIL-13Rα2-cFc": "~2"},
      {"binder": "B7", "fold decrease of KD against unmodified cIL-13Rα2-cFc": "~2"}
    ]},
    {"biological_target": "T2, canine IL-13", "experiment": "BLI (Octet); summary table, rounded from Table 4", "units": {"Kd": "nM"}, "values": [
      {"binder": "B4", "Kd": 0.4},
      {"binder": "B8", "Kd": 5},
      {"binder": "B9", "Kd": 0.0007}
    ]},
    {"biological_target": "T2, canine IL-13", "experiment": "cell-based or functional assay", "units": {"IL-13 IC50 (inhibition of cIL-13 mediated STAT6 phosphorylation in DH82 cells)": "nM"}, "values": [
      {"binder": "B4", "IL-13 IC50 (inhibition of cIL-13 mediated STAT6 phosphorylation in DH82 cells)": 3.02},
      {"binder": "B8", "IL-13 IC50 (inhibition of cIL-13 mediated STAT6 phosphorylation in DH82 cells)": 18.4},
      {"binder": "B9", "IL-13 IC50 (inhibition of cIL-13 mediated STAT6 phosphorylation in DH82 cells)": 0.165}
    ]},
    {"biological_target": "T1, canine IL-4", "experiment": "cell-based or functional assay", "remark": "another data set of the same source", "units": {"IL-4 (IC50), summary table": "nM"}, "values": [
      {"binder": "B1", "IL-4 (IC50), summary table": 0.08},
      {"binder": "B4", "IL-4 (IC50), summary table": 0.05}
    ]},
    {"biological_target": "T2, canine IL-13", "experiment": "cell-based or functional assay", "remark": "another data set of the same source", "units": {"IL-13 (IC50), summary table": "nM"}, "values": [
      {"binder": "B4", "IL-13 (IC50), summary table": 3},
      {"binder": "B8", "IL-13 (IC50), summary table": 20},
      {"binder": "B9", "IL-13 (IC50), summary table": 0.2}
    ]},
    {"biological_target": "T2, canine IL-13", "experiment": "BLI (Octet HTX), biotin-cIL-13 on SA biosensors, fusion protein in solution, 1:1 fit", "procedure": "as §1", "units": {"Kd": "nM", "koff": "s⁻¹", "kon": "M⁻¹ s⁻¹"}, "values": [
      {"binder": "B4", "Kd": 0.415, "koff": "3.91e-05", "kon": 94400},
      {"binder": "B8", "Kd": 5.37, "koff": 0.000312, "kon": 58000},
      {"binder": "B5", "Kd": 16.5, "koff": 0.0011, "kon": 66500},
      {"binder": "B6", "Kd": 0.00044, "koff": "5.07e-07", "kon": "1.15e+06"},
      {"binder": "B9", "Kd": 0.000744, "koff": "7.45e-07", "kon": "1e+06"},
      {"binder": "B7", "Kd": 0.000432, "koff": "5.04e-07", "kon": "1.17e+06"}
    ]},
    {"biological_target": "T2, canine IL-13", "experiment": "cell-based or functional assay", "remark": "another data set of the same source", "units": {"fold change of the concentration that inhibits 50% of the cIL-13 mediated STAT6 phosphorylation in DH82 cells, against cIL-13Rα1-cFc": "fold lower", "fold change of the concentration that inhibits 50% of the cIL-13 mediated STAT6 phosphorylation in DH82 cells, against cIL-13Rα2-cFc": "fold higher"}, "values": [
      {"binder": "B4", "fold change of the concentration that inhibits 50% of the cIL-13 mediated STAT6 phosphorylation in DH82 cells, against cIL-13Rα1-cFc": 6, "fold change of the concentration that inhibits 50% of the cIL-13 mediated STAT6 phosphorylation in DH82 cells, against cIL-13Rα2-cFc": "~20"}
    ]}
  ]
}
